Target: N-terminally His6-tagged human PCNA (proliferating cell nuclear antigen) (human, UniProt P12004 1-261)
Assay: ITC

Chain of N-terminally His6-tagged human PCNA (proliferating cell nuclear antigen) (P12004 whole entry): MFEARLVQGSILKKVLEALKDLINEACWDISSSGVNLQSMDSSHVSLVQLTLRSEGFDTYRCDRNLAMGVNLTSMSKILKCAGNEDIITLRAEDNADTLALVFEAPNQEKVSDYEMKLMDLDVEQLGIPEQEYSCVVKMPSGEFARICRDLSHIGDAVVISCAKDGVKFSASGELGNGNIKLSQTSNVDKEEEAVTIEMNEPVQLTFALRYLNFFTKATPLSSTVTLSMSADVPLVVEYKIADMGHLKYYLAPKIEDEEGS

Binder | Kd [µM]
Ac-SESSQTSMTDFYHSESSL-NH2 [D1.2, mutant variant of p21^140–157 (Ac-SESSQTSMTDFYHSESSL-NH2)] | 40
Ac-RKRRQTSMTDFYHSESSL-NH2 [S2, mutant variant of p21^140–157 (Ac-RKRRQTSMTDFYHSESSL-NH2)] | 0.3
Ac-SESSQTSMTDFYHSKRRL-NH2 [S1, mutant variant of p21^140–157 (Ac-SESSQTSMTDFYHSKRRL-NH2)] | 8.3

From PMC6881253 (2019)
